Results from the RNAGym collection of RNA variant scans (doi:10.7554/elife.80360).

B1: CPEB3 Ribozyme (parent)
chain: GGGGGCCACAGCAGAAGCGUUCACGUCGCGGCCCCUGUCAGAUUCUGGUGAAUCUGCGAAUUCUGCUGU

Variants of: B1
Assay: self-cleavage, relative activity (ratio to wild type); higher = more cleavage; co-transcriptional

Row | Variant | self-cleavage
1 | A15C C35U | 0.686
2 | G14C U43C | 0.399
3 | G14C U43A | 0.204
4 | A16C A59U | 0.221
5 | A16C A59C | 0.106
6 | G14C U49C | 0.55
7 | A16G U26C | 0.555
8 | A15C A52C | 0.748
9 | A15C A52U | 0.816
10 | A15U U67C | 0.827
11 | G14U C39A | 0.223
12 | A15G U38A | 0.877
13 | G14U C22G | 0.172
14 | A16C G30U | 0.131
15 | A16C G30A | 0.188
16 | A15C G65C | 0.277
17 | A15C G65U | 0.411
18 | A15C U21G | 0.157
19 | A16C U20A | 0.0817
20 | A16C U20C | 0.125
21 | A16G G17C | 0.131
22 | A15U A60U | 0.325
23 | A16C G68U | 0.408
24 | G14U U49A | 0.858

Row | Variant | self-cleavage
25 | A15U G17C | 0.171
26 | A15G U43G | 0.779
27 | A15G U43A | 0.851
28 | A16G C24A | 0.481
29 | A16G C24U | 0.68
30 | A16G C24G | 0.385
31 | G14U U21G | 0.147
32 | G14C G56A | 0.31
33 | A15G A23C | 0.919
34 | A15U U21A | 0.841
35 | A15G G28C | 0.165
36 | A15G C57U | 0.294
37 | A16C C34A | 0.165
38 | A16C G50A | 0.23
39 | A16C G50U | 0.306
40 | A15C G50U | 0.878
41 | G14U G19U | 0.17
42 | G14U G19C | 0.15
43 | A15U G28A | 0.161
44 | G14U A15U | 0.358
45 | G14U A15C | 0.415
46 | A16C C22U | 0.0688
47 | A15G C29U | 0.358
48 | A16C G48C | 0.409

Row | Variant | self-cleavage
49 | A16G A59U | 0.535
50 | G14U G41U | 0.276
51 | G14U G41A | 0.206
52 | A15G U64A | 0.845
53 | A15G U64C | 0.939
54 | A15U U61A | 0.931
55 | A15G A51G | 1.05
56 | A15G A51U | 0.963
57 | A15G G30C | 0.618
58 | A15C C22G | 0.0813
59 | A15C C22A | 0.148
60 | A15C G30C | 0.189
61 | A16C G28U | 0.113
62 | A15G C24G | 0.405
63 | A15G C24U | 0.87
64 | G14U G48U | 0.855
65 | G14U G48C | 0.907
66 | A15U G65A | 0.753
67 | A15U G65U | 0.47
68 | A15U A51U | 0.851
69 | A15C G17C | 0.131
70 | A15G G41A | 0.732
71 | A15G G41C | 0.777
72 | A16G G37A | 0.13

Row | Variant | self-cleavage
73 | A15C G47A | 0.889
74 | A15C G47C | 0.894
75 | A16G C18G | 0.129
76 | A16G A40G | 0.788
77 | A15C U69A | 0.962
78 | A15C U69G | 1.02
79 | A15G U44A | 0.987
80 | A15G U44C | 0.99
81 | A15G U44G | 0.954
82 | A15C U67A | 0.916
83 | A15C U67C | 0.888
84 | A15C G41U | 0.463
85 | G14C G48U | 0.805
86 | A16C C66U | 0.203
87 | A15U C32U | 0.913
88 | A16C U67C | 0.289
89 | A16G G68A | 1.02
90 | A15G G47C | 1.05
91 | A15G G47U | 1.04
92 | G14U C32G | 0.237
93 | G14U U46G | 0.871
94 | G14U G58U | 0.893
95 | G14U A51U | 0.739
96 | A15C C33U | 0.911

Row | Variant | self-cleavage
97 | A15U U36C | 0.557
98 | G14U A59C | 0.309
99 | G14U A59G | 0.753
100 | A15G A60U | 0.579
101 | A15U G25A | 0.121
102 | A15U G25C | 0.165
103 | G14U A60C | 0.269
104 | G14U A60U | 0.331
105 | A15U C24A | 0.299
106 | A15C U53C | 0.451
107 | A15C U53G | 0.558
108 | G14U A52G | 0.851
109 | G14C U55G | 0.185
110 | A16C G47U | 0.427
111 | A16G C27A | 0.481
112 | A16G C27G | 0.102
113 | A16G C27U | 0.228
114 | A15U C33G | 0.294
115 | G14C G47C | 0.794
116 | A16C C39U | 0.184
117 | A16C C39G | 0.151
118 | G14C G65U | 0.242
119 | A16C U55C | 0.165
120 | A15G U21C | 0.847

Row | Variant | self-cleavage
121 | A15C C39A | 0.359
122 | A16C U64A | 0.0981
123 | A16C U64C | 0.145
124 | A16C G41C | 0.18
125 | A15G G58A | 0.964
126 | A16C G65C | 0.174
127 | A15C U46G | 0.929
128 | A15U C39U | 0.583
129 | G14U G56A | 0.539
130 | G14C G19U | 0.156
131 | A15U A42G | 0.68
132 | A15C U55G | 0.32
133 | A15C G25C | 0.186
134 | A15C G25U | 0.192
135 | A16G C35G | 0.373
136 | A16G C35A | 0.179
137 | A16C U43G | 0.198
138 | A16C U43C | 0.204
139 | A15U C29U | 0.151
140 | A15G U20C | 0.126
141 | A16G G65A | 0.622
142 | A16G G65U | 0.571
143 | A16C U62G | 0.148
144 | A16C U62C | 0.222

Row | Variant | self-cleavage
145 | A16C U62A | 0.152
146 | A15U C57U | 0.323
147 | A15C U62A | 0.912
148 | A15C U62C | 0.841
149 | A15C U62G | 1.02
150 | A15G C39U | 0.893
151 | A15G C39G | 0.928
152 | G14U U36G | 0.142
153 | G14U U36C | 0.535
154 | A16G A42G | 0.855
155 | A16G A42U | 0.83
156 | A15U C35G | 0.187
157 | A15U C35A | 0.192
158 | G14U G28C | 0.159
159 | G14U G28A | 0.213
160 | A15U C27U | 0.153
161 | A16G G19C | 0.158
162 | A16G G19A | 0.163
163 | A16G G19U | 0.184
164 | A15C C63U | 0.937
165 | A15C C63A | 0.921
166 | A16G G56U | 0.634
167 | A15C U26G | 0.586
